# PMC6152951
# Biological target: Strep-Flag-FAS I, recombinant 4'-phosphopantetheinylated M. tuberculosis fatty acid synthase I (M. tuberculosis)
# Experiment: SEC; […] (100 mM potassium phosphate pH 7.2, 150 mM KCl, 1 mM TCEP, 1 mM EDTA); […]
substance,measurement,value
"Strep-Flag-FAS I, recombinant 4'-phosphopantetheinylated M. tuberculosis fatty acid synthase I (enzyme)",stoichiometry N,6
